From patent publication US11278600B2, “Human alpha-galactosidase variants” (Codexis, Inc., priority 2014, dated 2022)

B1: 37 (protein)
chain: LDNGLARTPTMGWLHWERFMCNLDCQEEPDSCISEKLFMEMAELMVSEGWKDAGYEYLCIDDCWMAPQRDSEGRLQADPQRFPHGIRQLANYVHSKGLKLGIYAAVGNKTCAGFPGSFGYYDIDAQTFADWGVDLLKFDGCYCDSLENLADGYKHMSLALNRTGRSIVYSCEWPLYMWPFQKPNYTEIRQYCNHWRNFADIDDSWKSIKSILDWTSFNQERIVDVAGPGGWNDPDMLVIGNFGLSWNQQVTQMALWAIMAAPLFMSNDLRHISPQAKALLQDKDVIAINQDPLGKQGYQLRQGDNFEVWERPLSGLAWAVAMINRQEIGGPRSYTIAVASLGKGVACNPACFITQLLPVKRKLGFYEWTSRLRSHINPTGTVLLQLENTMQMSKDLLL
modifications: Synthetic Polypeptide sequence of Variant No. 37 of mature Human GLA
B2: 143 (protein)
chain: LDNGLARTPTMGWLHWERFMCNLDCQEEPDSCISEKLFMEMAELMVSEGWKDAGYEYLCIDDCWMAPQRDSEGRLQADPHRFPHGIRQLANYVHSKGLKLGIYADVGNKTCAGFPGSFGYYDIDAQTFADWGVDLLKFDGCYCDSLENLADGYKHMSLALNRTGRSIVYSCEWPLYMWPFQKPNYTEIRQYCNHWRNFADIDDSWKSIKSILDWTSFNQERIVDVAGPGGWNDPDMLVIGNFGLSWNQQVTQMALWAIMAAPLFMSNDLRHISPQAKALLQDKDVIAINQDPLGKQGYQLRQGDNFEVWERPLSGLAWAVAMINRQEIGGPRSYTIAVASLGKGVACNPACFITQLLPVKRKLGFYEWTSRLRSHINPTGTVLLQLENTMQMSKDLLL
modifications: Synthetic Polypeptide sequence of Variant No. 143 of mature Human GLA
B3: 144 (protein)
chain: LDNGLARTPTMGWLHWERFMCNLDCQEEPDSCISEKLFMEMAELMVSEGWKDAGYEYLCIDDCWMAPQRDSEGRLQADPVRFPHGIRQLANYVHSKGLKLGIYADVGNKTCAGFPGSFGYYDIDAQTFADWGVDLLKFDGCYCDSLENLADGYKHMSLALNRTGRSIVYSCEWPLYMWPFQKPNYTEIRQYCNHWRNFADIDDSWKSIKSILDWTSFNQERIVDVAGPGGWNDPDMLVIGNFGLSWNQQVTQMALWAIMAAPLFMSNDLRHISPQAKALLQDKDVIAINQDPLGKQGYQLRQGDNFEVWERPLSGLAWAVAMINRQEIGGPRSYTIAVASLGKGVACNPACFITQLLPVKRKLGFYEWTSRLRSHINPTGTVLLQLENTMQMSKDLLL
modifications: Synthetic Polypeptide sequence of Variant No. 144 of mature Human GLA
B4: 145 (protein)
chain: LDNGLARTPTMGWLHWERFMCNLDCQEEPDSCISEKLFMEMAELMVSEGWKDAGYEYLCIDDCWMAPQRDSEGRLQADPQRFPHGIRALANYVHSKGLKLGIYADVGNKTCAGFPGSFGYYDIDAQTFADWGVDLLKFDGCYCDSLENLADGYKHMSLALNRTGRSIVYSCEWPLYMWPFQKPNYTEIRQYCNHWRNFADIDDSWKSIKSILDWTSFNQERIVDVAGPGGWNDPDMLVIGNFGLSWNQQVTQMALWAIMAAPLFMSNDLRHISPQAKALLQDKDVIAINQDPLGKQGYQLRQGDNFEVWERPLSGLAWAVAMINRQEIGGPRSYTIAVASLGKGVACNPACFITQLLPVKRKLGFYEWTSRLRSHINPTGTVLLQLENTMQMSKDLLL
modifications: Synthetic Polypeptide sequence of Variant No. 145 of mature Human GLA
B5: 146 (protein)
chain: LDNGLARTPTMGWLHWERFMCNLDCQEEPDSCISEKLFMEMAELMVSEGWKDAGYEYLCIDDCWMAPQRDSEGRLQADPQRFPHGIRFLANYVHSKGLKLGIYADVGNKTCAGFPGSFGYYDIDAQTFADWGVDLLKFDGCYCDSLENLADGYKHMSLALNRTGRSIVYSCEWPLYMWPFQKPNYTEIRQYCNHWRNFADIDDSWKSIKSILDWTSFNQERIVDVAGPGGWNDPDMLVIGNFGLSWNQQVTQMALWAIMAAPLFMSNDLRHISPQAKALLQDKDVIAINQDPLGKQGYQLRQGDNFEVWERPLSGLAWAVAMINRQEIGGPRSYTIAVASLGKGVACNPACFITQLLPVKRKLGFYEWTSRLRSHINPTGTVLLQLENTMQMSKDLLL
modifications: Synthetic Polypeptide sequence of Variant No. 146 of mature Human GLA
B6: 147 (protein)
chain: LDNGLARTPTMGWLHWERFMCNLDCQEEPDSCISEKLFMEMAELMVSEGWKDAGYEYLCIDDCWMAPQRDSEGRLQADPQRFPHGIRHLANYVHSKGLKLGIYADVGNKTCAGFPGSFGYYDIDAQTFADWGVDLLKFDGCYCDSLENLADGYKHMSLALNRTGRSIVYSCEWPLYMWPFQKPNYTEIRQYCNHWRNFADIDDSWKSIKSILDWTSFNQERIVDVAGPGGWNDPDMLVIGNFGLSWNQQVTQMALWAIMAAPLFMSNDLRHISPQAKALLQDKDVIAINQDPLGKQGYQLRQGDNFEVWERPLSGLAWAVAMINRQEIGGPRSYTIAVASLGKGVACNPACFITQLLPVKRKLGFYEWTSRLRSHINPTGTVLLQLENTMQMSKDLLL
modifications: Synthetic Polypeptide sequence of Variant No. 147 of mature Human GLA
B7: 148 (protein)
chain: LDNGLARTPTMGWLHWERFMCNLDCQEEPDSCISEKLFMEMAELMVSEGWKDAGYEYLCIDDCWMAPQRDSEGRLQADPQRFPHGIRRLANYVHSKGLKLGIYADVGNKTCAGFPGSFGYYDIDAQTFADWGVDLLKFDGCYCDSLENLADGYKHMSLALNRTGRSIVYSCEWPLYMWPFQKPNYTEIRQYCNHWRNFADIDDSWKSIKSILDWTSFNQERIVDVAGPGGWNDPDMLVIGNFGLSWNQQVTQMALWAIMAAPLFMSNDLRHISPQAKALLQDKDVIAINQDPLGKQGYQLRQGDNFEVWERPLSGLAWAVAMINRQEIGGPRSYTIAVASLGKGVACNPACFITQLLPVKRKLGFYEWTSRLRSHINPTGTVLLQLENTMQMSKDLLL
modifications: Synthetic Polypeptide sequence of Variant No. 148 of mature Human GLA
B8: 149 (protein)
chain: LDNGLARTPTMGWLHWERFMCNLDCQEEPDSCISEKLFMEMAELMVSEGWKDAGYEYLCIDDCWMAPQRDSEGRLQADPQRFPHGIRSLANYVHSKGLKLGIYADVGNKTCAGFPGSFGYYDIDAQTFADWGVDLLKFDGCYCDSLENLADGYKHMSLALNRTGRSIVYSCEWPLYMWPFQKPNYTEIRQYCNHWRNFADIDDSWKSIKSILDWTSFNQERIVDVAGPGGWNDPDMLVIGNFGLSWNQQVTQMALWAIMAAPLFMSNDLRHISPQAKALLQDKDVIAINQDPLGKQGYQLRQGDNFEVWERPLSGLAWAVAMINRQEIGGPRSYTIAVASLGKGVACNPACFITQLLPVKRKLGFYEWTSRLRSHINPTGTVLLQLENTMQMSKDLLL
modifications: Synthetic Polypeptide sequence of Variant No. 149 of mature Human GLA

Tests used:
Assay type in all cases: biochemical
[1] = HTP-analysis of yeast culture supernatants, no challenge (MUGal hydrolysis); settings: activity of the variant/activity of WT GLA (SEQ ID NO: 5), yeast supernatant
Summary of the method: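 GLA variants were expressed in INVSc1 yeast grown in SD-Ura broth with glucose at 30° C., and culture supernatants were collected after 66-84 h. Supernatant was mixed with McIlvaine buffer pH 4.8 and MUGal (2 mM stock) in 50 mM citrate, 200 mM KCl, pH 4.6, incubated at 37° C. for 30-180 minutes, then quenched with sodium carbonate.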

[2] = HTP-analysis of supernatants pretreated with acid (MUGal hydrolysis); settings: challenge at pH 4.2; activity of the variant/activity of WT GLA (SEQ ID NO: 5); yeast supernatant
Summary of the method: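 MUGal hydrolysis was tracked by fluorescence (Ex 355 nm, Em 448 nm) after a 30-180 min reaction at 37° C. in pH 4.8 McIlvaine/citrate buffer, stopped with 1 M sodium carbonate. Beforehand, yeast (INVSc1) culture supernatants carrying GLA variants were held 1-3 h at 37° C. in acidic McIlvaine buffer, pH 3.3-4.3.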

[3] = HTP-analysis of supernatants pretreated with base (MUGal hydrolysis); settings: challenge at pH 7.1; activity of the variant/activity of WT GLA (SEQ ID NO: 5); yeast supernatant
Summary of the method: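 GLA variants were secreted by transformed INVSc1 yeast grown 66-84 h at 30° C. Supernatants were exposed to neutral-to-basic buffers (pH 7.0-9.7) at 37° C for 1-18 h, then assayed with MUGal in acidic citrate/McIlvaine buffer, with fluorescence read after quenching.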

| Molecule | Relative Activity of GLA Variants After No Challenge (NC) [1] | Relative Activity of GLA Variants After Challenge at pH 4.2 [2] | Relative Activity of GLA Variants After Challenge at pH 7.1 [3] |
| --- | --- | --- | --- |
| B1 | + (+ = 0.5 to 1.5 relative activity over WT GLA (SEQ ID NO: 5)) | + (+ = 0.5 to 1.5 relative activity over WT GLA (SEQ ID NO: 5)) | + (+ = 0.5 to 1.5 relative activity over WT GLA (SEQ ID NO: 5)) |
| B2 | + (+ = 0.5 to 1.5 relative activity over WT GLA (SEQ ID NO: 5)) | + (+ = 0.5 to 1.5 relative activity over WT GLA (SEQ ID NO: 5)) | + (+ = 0.5 to 1.5 relative activity over WT GLA (SEQ ID NO: 5)) |
| B3 | + (+ = 0.5 to 1.5 relative activity over WT GLA (SEQ ID NO: 5)) | ++ (++ = >1.5 to 2.5 relative activity over WT GLA (SEQ ID NO: 5)) | + (+ = 0.5 to 1.5 relative activity over WT GLA (SEQ ID NO: 5)) |
| B4 | + (+ = 0.5 to 1.5 relative activity over WT GLA (SEQ ID NO: 5)) | + (+ = 0.5 to 1.5 relative activity over WT GLA (SEQ ID NO: 5)) | + (+ = 0.5 to 1.5 relative activity over WT GLA (SEQ ID NO: 5)) |
| B5 | + (+ = 0.5 to 1.5 relative activity over WT GLA (SEQ ID NO: 5)) | + (+ = 0.5 to 1.5 relative activity over WT GLA (SEQ ID NO: 5)) | + (+ = 0.5 to 1.5 relative activity over WT GLA (SEQ ID NO: 5)) |
| B6 | ++ (++ = >1.5 to 2.5 relative activity over WT GLA (SEQ ID NO: 5)) | ++ (++ = >1.5 to 2.5 relative activity over WT GLA (SEQ ID NO: 5)) | ++ (++ = >1.5 to 2.5 relative activity over WT GLA (SEQ ID NO: 5)) |
| B7 | + (+ = 0.5 to 1.5 relative activity over WT GLA (SEQ ID NO: 5)) | ++ (++ = >1.5 to 2.5 relative activity over WT GLA (SEQ ID NO: 5)) | + (+ = 0.5 to 1.5 relative activity over WT GLA (SEQ ID NO: 5)) |
| B8 | ++ (++ = >1.5 to 2.5 relative activity over WT GLA (SEQ ID NO: 5)) | + (+ = 0.5 to 1.5 relative activity over WT GLA (SEQ ID NO: 5)) | ++ (++ = >1.5 to 2.5 relative activity over WT GLA (SEQ ID NO: 5)) |
